# Molecular target: EsxX glycine zipper peptide (EsxX 448-476), N-terminal biotin (Staphylococcus aureus (ST398))
# Test: BLI; biotinylated peptide captured on streptavidin SAX biosensors (~1.0 nm); ExiABhis 50 uM to 1.6 uM in 2-fold dilutions in 10X Kinetics Buffer; association 180 s at 25 C; 1:1 kinetic model and steady-state model
substance,measurement,value
ExiA-ExiBhis dimer (complex),Kd,22 µM
same,stoichiometry N,1
